T1: Construct 7 (human NaPi2b del 317-326) (human, UniProt O95436 1-690)
T1 construct: also called CL_#29921
T1 sequence: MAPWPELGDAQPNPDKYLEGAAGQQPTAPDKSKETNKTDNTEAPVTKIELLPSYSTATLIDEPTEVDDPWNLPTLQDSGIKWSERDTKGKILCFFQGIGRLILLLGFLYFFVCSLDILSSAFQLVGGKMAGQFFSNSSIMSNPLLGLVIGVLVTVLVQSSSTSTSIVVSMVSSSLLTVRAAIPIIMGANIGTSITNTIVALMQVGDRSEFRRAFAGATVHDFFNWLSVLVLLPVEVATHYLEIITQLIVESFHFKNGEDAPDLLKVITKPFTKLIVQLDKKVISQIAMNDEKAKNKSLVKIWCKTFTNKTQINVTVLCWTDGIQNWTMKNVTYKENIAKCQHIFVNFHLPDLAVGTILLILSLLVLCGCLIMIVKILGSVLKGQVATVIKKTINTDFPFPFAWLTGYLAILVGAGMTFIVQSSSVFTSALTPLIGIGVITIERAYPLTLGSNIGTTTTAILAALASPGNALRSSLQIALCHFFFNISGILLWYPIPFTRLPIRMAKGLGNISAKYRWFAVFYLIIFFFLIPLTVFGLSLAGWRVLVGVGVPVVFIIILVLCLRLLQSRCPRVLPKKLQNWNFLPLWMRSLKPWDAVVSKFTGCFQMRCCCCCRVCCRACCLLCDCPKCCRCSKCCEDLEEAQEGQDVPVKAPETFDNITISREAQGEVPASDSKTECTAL

T2: Full length human NaPi2b (sodium-dependent phosphate transporter 2B, SLC34A2) (human, UniProt O95436 1-690)
T2 construct: also called huNaPi2b; CL_#13432
T2 sequence: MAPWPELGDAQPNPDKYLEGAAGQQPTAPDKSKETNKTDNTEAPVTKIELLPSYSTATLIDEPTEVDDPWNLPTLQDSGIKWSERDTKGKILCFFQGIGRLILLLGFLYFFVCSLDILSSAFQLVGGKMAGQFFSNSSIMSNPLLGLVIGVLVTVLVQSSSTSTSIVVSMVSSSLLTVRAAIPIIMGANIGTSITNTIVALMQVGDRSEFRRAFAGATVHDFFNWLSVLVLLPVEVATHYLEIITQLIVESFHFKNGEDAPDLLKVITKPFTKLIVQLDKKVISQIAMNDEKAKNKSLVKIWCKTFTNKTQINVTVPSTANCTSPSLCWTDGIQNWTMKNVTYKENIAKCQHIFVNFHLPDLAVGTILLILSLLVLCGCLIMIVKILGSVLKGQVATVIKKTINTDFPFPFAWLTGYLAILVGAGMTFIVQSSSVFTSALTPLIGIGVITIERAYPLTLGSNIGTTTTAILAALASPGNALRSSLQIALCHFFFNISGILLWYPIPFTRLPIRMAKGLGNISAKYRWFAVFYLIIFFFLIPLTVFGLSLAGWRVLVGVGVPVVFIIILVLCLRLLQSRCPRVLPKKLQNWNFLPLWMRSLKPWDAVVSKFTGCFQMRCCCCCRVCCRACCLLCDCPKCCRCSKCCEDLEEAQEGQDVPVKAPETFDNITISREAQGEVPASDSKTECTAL

B1: palivizumab (v21995), anti-RSV antibody, negative control (antibody, human IgG1, kappa, V domains shown)
VH: QVTLRESGPALVKPTQTLTLTCTFSGFSLSTSGMSVGWIRQPPGKALEWLADIWWDDKKDYNPSLKSRLTISKDTSKNQVVLKVTNMDPADTATYYCARSMITNWYFDVWGAGTTVTVSS
VL: DIQMTQSPSTLSASVGDRVTITCKSQLSVGYMHWYQQKPGKAPKLLIYDTSKLASGVPSRFSGSGSGTEFTLTISSLQPDDFATYYCFQGSGYPFTFGGGTKLEIKR
B2: lifastuzumab (v18993), reference anti-NaPi2b antibody (antibody, human IgG1, kappa)
heavy 1: GEVQLVESGGGLVQPGGSLRLSCAASGFSFSDFAMSWVRQAPGKGLEWVATIGRVAFHTYYPDSMKGRFTISRDNSKNTLYLQMNSLRAEDTAVYYCARHRGFDVGHFDFWGQGTLVTVSSASTKGPSVFPLAPSSKSTSGGTAALGCLVKDYFPEPVTVSWNSGALTSGVHTFPAVLQSSGLYSLSSVVTVPSSSLGTQTYICNVNHKPSNTKVDKKVEPKSCDKTHTCPPCPAPELLGGPSVFLFPPKPKDTLMISRTPEVTCVVVDVSHEDPEVKFNWYVDGVEVHNAKTKPREEQYNSTYRVVSVLTVLHQDWLNGKEYKCKVSNKALPAPIEKTISKAKGQPREPQVYVYPPSRDELTKNQVSLTCLVKGFYPSDIAVEWESNGQPENNYKTTPPVLDSDGSFALVSKLTVDKSRWQQGNVFSCSVMHEALHNHYTQKSLSLSPG
heavy 2: not shown
light: GDIQMTQSPSSLSASVGDRVTITCRSSETLVHSSGNTYLEWYQQKPGKAPKLLIYRVSNRFSGVPSRFSGSGSGTDFTLTISSLQPEDFATYYCFQGSFNPLTFGQGTKVEIKRTVAAPSVFIFPPSDEQLKSGTASVVCLLNNFYPREAKVQWKVDNALQSGNSQESVTEQDSKDSTYSLSSTLTLSKADYEKHKVYACEVTHQGLSSPVTKSFNRGEC

How the values were obtained:
Assay in all cases: flow cytometry, transfected HEK293-6e cells, antibody 2 nM;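 note: transfected cells exposed to test antibody 24 h at 4 °C to block internalization, at least 1,000 events per well, background is mean MFI of unstained cells lacking primary antibody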
[1] = molecular target: T3, Construct 1 (chimeric human NaPi2b, swap in NaPi2c in 239-259) (human)
T3 construct: also called CL_#29914

[2] = molecular target: T1, Construct 7 (human NaPi2b del 317-326)
[3] = molecular target: T2, Full length human NaPi2b …
[4] = molecular target: T4, Construct 5 (chimeric human NaPi2b, swap in NaPi2a in 304-348) (human)
T4 construct: also called CL_#13436

[5] = molecular target: T5, Construct 2 (chimeric human NaPi2b, swap in NaPi2c in 280-301) (human)
T5 construct: also called CL_#29915

| Binder | Background-Subtracted AF647 Mean Fluorescence Intensity [1] | Background-Subtracted AF647 Mean Fluorescence Intensity [2] | Background-Subtracted AF647 Mean Fluorescence Intensity [3] | Background-Subtracted AF647 Mean Fluorescence Intensity [4] | Background-Subtracted AF647 Mean Fluorescence Intensity [5] |
| --- | --- | --- | --- | --- | --- |
| B1 | -30 MFI | -34 MFI | -22 MFI | -2 MFI | -69 MFI |
| B2 | 1230 MFI | 56 MFI | 1040 MFI | 25 MFI | 473 MFI |

— US20260232827A1 (Zymeworks, published 2026)
